Assay [1] has as its target sdAb c7b. The assay can be described thus: ELISA; table printed under the ELISA plot; legend values suggest HEK-293 cells. Background: ELISA stands for enzyme-linked immunosorbent assay.
For assay [2], the target named is T1, recombinant human NKG2D/Fc chimera (R&D Systems) (human, UniProt P26718 78-216).
T1 chain: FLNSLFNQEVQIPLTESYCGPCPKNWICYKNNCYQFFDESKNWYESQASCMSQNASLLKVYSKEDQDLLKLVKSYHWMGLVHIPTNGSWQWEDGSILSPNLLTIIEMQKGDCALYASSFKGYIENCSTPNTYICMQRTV
Described as above.

For assay [3], the target named is T2, NKG2D on HEK-293T cells co-transfected with NKG2D and DAP10 (UniProt P26718 1-216).
T2 chain: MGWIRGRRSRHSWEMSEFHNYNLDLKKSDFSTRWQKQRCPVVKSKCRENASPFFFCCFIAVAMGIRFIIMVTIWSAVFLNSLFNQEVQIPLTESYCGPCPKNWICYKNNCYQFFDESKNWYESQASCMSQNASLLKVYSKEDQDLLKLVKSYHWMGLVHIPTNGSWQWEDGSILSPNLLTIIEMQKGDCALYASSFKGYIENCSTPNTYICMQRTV
Nature of the assay: flow cytometry; table printed under the HEK-293 plot; legend values suggest ELISA. On the technique in general: In flow cytometry, cells or beads pass a laser one at a time.

The target in assay [4] is bsfAb ET1F8. The assay can be described thus: flow cytometry.
In assay [5] the target is bsfAb ET2F9. Nature of the assay: flow cytometry.

B1: Fc-NKG2D (Fc fusion)
chain: FLNSLFNQEVQIPLTESYCGPCPKNWICYKNNCYQFFDESKNWYESQASCMSQNASLLKVYSKEDQDLLKLVKSYHWMGLVHIPTNGSWQWEDGSILSPNLLTIIEMQKGDCALYASSFKGYIENCSTPNTYICMQRTV
B1 yielded a Kd in assay [1] of 6.07 nM.

B2: sdAb ET2F9 (VHH)
VHH: QVQLVQSGGGLVQPGGSLRLSCAASGFTFDDYAMSWVRQAPGKGLEWVSAISWSGRTTYYAESMKGRFTTSRDNAKNTLYLQMNSLKPEDTALYYCARGDVAIRGNLDAWGQGTQVTVSS
Turning to B2, the Kd came to 1710 nM in assay [2] and 41.1 nM in assay [3].

B3: transfected HEK-293 (receptor)
chain: MGWIRGRRSRHSWEMSEFHNYNLDLKKSDFSTRWQKQRCPVVKSKCRENASPFFFCCFIAVAMGIRFIIMVTIWSAVFLNSLFNQEVQIPLTESYCGPCPKNWICYKNNCYQFFDESKNWYESQASCMSQNASLLKVYSKEDQDLLKLVKSYHWMGLVHIPTNGSWQWEDGSILSPNLLTIIEMQKGDCALYASSFKGYIENCSTPNTYICMQRTV
Turning to B3, the Kd worked out at 32.5 nM in assay [4] and 33.2 nM in assay [5].

A word on the Kd: it is the constant that tells how readily two partners part at equilibrium.

The values above are taken from patent US20180327499A1 (published 2018).
